For three substances, Kd, % residual fluorescence of labeled mAb and MFI results are on record in patent US20250051443A1 (NATIONAL RESEARCH COUNCIL OF CANADA, published 2025).

One assay concerns the target T1, Cynomolgus CD3 (Cynomolgus, UniProt Q95LI5 22-198; Q95LI7 23-181; Q95LI8 22-171).
T1 construct: whole, on cells; also called CD3 on Cynomolgus PBMCs; CD3 on HSC-F Cynomolgus T cell line
In words: apparent KD (KDapp), flow cytometry titration on cynomolgus HSC-F T cell line. The protocol: To characterize potential cross-reactivity of the anti-human CD3 mAbs to NHP T cells, dose response flow cytometry titration studies were performed on both freshly obtained Cynomolgus PBMCs (Comparative Medicine and Animal Resources Centre—McGill University) or the Cynomolgus derived T cell line, HSC-F (Non-Human Primate Reagent Resource—NIH). Binding studies on fresh Cynomolgus PBMCs was performed on a subset of anti-CD3 mAbs (FIG. 4) whereas the Herpesvirus saimiri immortalized Cynomolgus T cell line HSC-F was employed for further evaluations (FIGS. 5A to 5C). KDapp values were calculated using a non-linear regression model of one-site binding with Hill slope (GraphPad Prism) and tabulated (Table 3b). Similar KDapp values for anti-CD3 mAb 1E2 obtained from binding to fresh Cynomolgus PBMCs (KDapp=0.28 nM) or the HSC-F T cell line (KDapp=0.39 nM) indicated the HSC-F cell line was a suitable surrogate for ex vivo NHP T cells.
HSC-F T cells obtained from the Non-Human Primate Reagent Resource (NIH) were maintained in culture in RPMI media containing 20% FBS and 40 IU/mL recombinant human IL2. 100K HSC-F cells in logarithmic cell growth were treated with graded doses of the anti-CD3 mAbs starting at 100 nM in staining buffer (SB; PBS/1% BSA/0.01% NaN3) for 2 hours at 4° C. in 96 w V-bottom plates. Following plate washing with SB, the cell pellets were resuspended with 25 μL of goat (Fab′)₂ anti-mouse IgG (H+L)− APC secondary antibody (final 5 μg/mL), incubated for 30 minutes at 4° C., followed by flow cytometry analysis. The commercial NHP cross-reactive SP34.2 anti-CD3 mAb (BD Biosciences), recombinant anti-human OKT-3 IgG2b (in house produced) and non-specific mIgG were employed as controls. 20K live events were acquired on a BD LSRFortessa flow analyzer and mean fluorescence intensities (MFI) calculated after subtraction of secondary antibody alone values. Using GraphPad Prism software, the data were analyzed using a one site specific binding with Hill slope non-linear regression model to calculate KDapp and BMax values (See Table 2).
Background: A flow cytometer gives signals particle by particle.

For assay [1], the target named is T2, human CD3 (human, UniProt P07766 23-207; P09693 23-182; P04234 22-171). Put plainly: flow competition on Jurkat, 100 nM unlabeled mAb; competitor AF488-SK7 1.5 nM. The protocol: (§1) In order to evaluate whether anti-CD3 monoclonal antibodies bind to the same epitope region, flow cytometry competition experiments on Jurkat cells were performed.
(§2) To that effect, a fixed concentration of the indicated AF488-labeled mAb were incubated with 100 nM of unlabeled monoclonal antibodies to assess if their binding capacity was impaired in presence of unlabeled mAbs. […] The AF488-OKT3 mIgG2b was labeled in-house using AlexaFluor488 protein labelling kit (Invitrogen #A10235) following manufacturer's instruction. The free dye removal step was done using Zeba™ Spin Desalting Columns, 7K MWCO (Thermo Scientific #89890). The final product was analyzed by UPLC-SEC to ensure the integrity of the labeled mAb.

In assay [2] the target is T2, human CD3. Put plainly: apparent KD (KDapp), flow cytometry titration of the AF488-labeled mAb on Jurkat cells.
For assay [3], the target named is T2, human CD3. In words: flow competition on Jurkat, 100 nM unlabeled mAb; competitor AF488-SP34.2 20 nM (self).
Assay [4] has as its target T2, human CD3. Put plainly: apparent KD (KDapp), flow cytometry titration on purified primary human T cells. The procedure:
The binding characteristics of the purified anti-CD3 mAbs were assessed in titration studies on purified human primary T cells from different donor samples. Fresh ex vivo peripheral blood mononuclear cells (PBMCs) were obtained via density centrifugation over Ficoll-Paque using standard procedures and untouched T cell fractions obtained from PBMCs by negative pan-T cell selection and magnetic cell sorting. Starting from 300 nM concentrations of the anti-CD3 mAbs, eight point binding curves were generated from the resultant mean fluorescence intensity (MFI) values obtained through detection of labelled secondary antibody to bound CD3 in flow cytometry experiments (FIGS. 3A and 3B). Both commercial mouse anti-human CD3 mAb (OKT-3; Biolegend) and an in house generated IgG1 version of OKT-3 were employed as positive controls together with a non-specific mouse IgG serving as a negative binding control. Following curve fit analysis using one-site specific binding with Hill slope, the KDapp (concentration needed to achieve a half-maximum binding at equilibrium) for each mAb was calculated (Table 2).
Eight point binding titrations were performed with the anti-CD3 mAbs starting at either 300 or 100 nM on freshly purified human T cells obtained through negative selection from PBMC fractions. Briefly, 1×10⁵ human T cells (50 μL of staining buffer (SB; PBS/1% BSA/0.01% NaN3) were incubated with graded dilutions of the anti-CD3 mAbs in SB ([…]) for 2 hours at 4° C. in 96 w U-bottom plates, followed by plate washing with SB ([…]). Cell pellets were resuspended with 25 μL of a 0.25 mg/mL solution of the goat (Fab′)₂ anti-mouse IgG (H+L)− APC secondary antibody in SB, incubated at 4° C. (30 min.), washed 1× with SB, and resuspended for flow analysis. Recombinant anti-human OKT-3 IgG2b (in house produced) and non-specific mIgG were employed similarly as positive and negative controls respectively. 10K live events were acquired on a BD LSRFortessa flow analyzer and mean fluorescence intensities (MFI) calculated after subtraction of secondary antibody alone values. Using GraphPad Prism software, the data were analyzed using a one site specific binding with Hill slope non-linear regression model to calculate KDapp and BMax values (See Table 2).

Assay [5] has as its target T2, human CD3. In words: flow competition on Jurkat, 100 nM unlabeled mAb; competitor AF488-UCHT1 5 nM. The protocol:
as §1, §2

Assay [6] deals with T2, human CD3. Put plainly: flow cytometry, negative control on CD3+ Jurkat cells.
Assay [7] has as its target T2, human CD3. Put plainly: flow cytometry, AF488-labeled mAb on CD3+ Jurkat cells.
The target of assay [8] is T2, human CD3. Put plainly: flow competition on Jurkat, 100 nM unlabeled mAb; competitor AF488-SP34.2 20 nM. The protocol: as §1, §2
Assay [9] deals with T2, human CD3. In words: flow competition on Jurkat, 100 nM unlabeled mAb; competitor AF488-UCHT1 5 nM (self).

For SP34.2 (antibody), the Kd with Cynomolgus CD3 is 1.29 nM; with human CD3 [2], 10.8 nM; with human CD3 [4], 1.77 nM. The % residual fluorescence of labeled mAb with human CD3 [1] is 29%; with human CD3 [3], 10%; in the assay with human CD3 [5], 49%.

As for Mouse IgG (antibody), the MFI in the assay with human CD3 [6] was determined as 34 MFI.

As to UCHT1 (antibody), in the assay with human CD3 [7], the MFI is 293 MFI. Moreover, the % residual fluorescence of labeled mAb with human CD3 [1] is 7%; in the assay with human CD3 [8], 54%; with human CD3 [9] it was 8%.
